Laboratory results as given in paper PMC7456325, “Diversity in the intrinsic apoptosis pathway of nematodes” (Communications Biology, 2020).

B1: T. suis protein A BH3 peptide (peptide)
peptide: SVRAPIRLCDAMFLMCDLFERKFHDR
notes: BH3 domain of Trichuris suis BCL-2-like protein A (ID# BCL_199); also called T. suis A BH3 domain peptide; source: synthetic peptide (Mimotopes, Australia, >90% purity)
B2: T. suis protein B BH3 peptide (peptide)
peptide: PILPEVNKTALCMRAMGEVFEDRYKT
notes: BH3 domain of Trichuris suis BCL-2-like protein B (ID# BCL_257); also called T. suis B BH3 domain peptide; source: synthetic peptide (Mimotopes, Australia, >90% purity)
B3: BAK BH3 peptide (peptide)
peptide: PSSTMGQVGRQLAIIGDDINRRYDSE
notes: BH3 domain of BAK; also called BAK BH3 domain; source: synthetic peptide (Mimotopes, Australia, >90% purity)

How the values were obtained:
[1] = biological target: T1, T. suis A ΔC28 (Trichuris suis BCL-2-like protein A, C-terminal truncation) (Trichuris suis, labelled with the NHS RED NanoTemper labelling kit (MO-L001) for MST); assay: MST; Monolith NT.115; protein labelled with NHS RED, unlabelled synthetic peptide diluted in phosphate-buffered saline; 30 min incubation; 25 °C; 40% LED and 40% MST power; three independent experiments, single binding model; details: both partners purified
T1 chain: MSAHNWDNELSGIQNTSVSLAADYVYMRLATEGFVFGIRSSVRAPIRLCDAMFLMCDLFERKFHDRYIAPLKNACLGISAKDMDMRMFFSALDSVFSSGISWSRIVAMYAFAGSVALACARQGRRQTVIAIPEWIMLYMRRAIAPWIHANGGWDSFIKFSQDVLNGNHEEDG

BCL-XLΔC24 = BCL-XLΔC24 (labelled with the NHS RED NanoTemper labelling kit (MO-L001) for MST); assay: as above; details: both partners purified
Sequence of BCL-XLΔC24 (labelled with the NHS RED NanoTemper labelling kit (MO-L001) for MST) (chain, as listed by the source mutant): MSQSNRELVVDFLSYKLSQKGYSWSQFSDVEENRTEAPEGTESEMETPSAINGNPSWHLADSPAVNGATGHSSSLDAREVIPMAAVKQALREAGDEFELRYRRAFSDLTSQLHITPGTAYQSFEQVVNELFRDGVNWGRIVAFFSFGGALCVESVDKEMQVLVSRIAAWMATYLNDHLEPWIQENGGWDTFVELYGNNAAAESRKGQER

Binder | Kd [1] [µM] | Kd (BCL-XLΔC24) [µM]
B1 | > 50 | –
B2 | > 50 | –
B3 | – | 0.178 ± 0.034
